From article PMC5258196 (Biochemistry, 2016)

T1: S. cerevisiae monothiol glutaredoxin Grx3 (S. cerevisiae, UniProt Q03835 1-250)
T1 sequence (looked up): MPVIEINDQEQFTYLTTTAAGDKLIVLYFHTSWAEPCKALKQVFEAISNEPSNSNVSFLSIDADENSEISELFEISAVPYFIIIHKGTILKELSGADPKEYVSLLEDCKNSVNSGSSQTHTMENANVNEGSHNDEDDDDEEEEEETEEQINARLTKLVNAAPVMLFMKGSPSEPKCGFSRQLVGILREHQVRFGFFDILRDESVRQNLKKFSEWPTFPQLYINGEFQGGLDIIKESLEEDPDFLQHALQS

T2: E. coli monothiol glutaredoxin Grx4 (E. coli, UniProt P0AC69 1-115)
T2 sequence (looked up): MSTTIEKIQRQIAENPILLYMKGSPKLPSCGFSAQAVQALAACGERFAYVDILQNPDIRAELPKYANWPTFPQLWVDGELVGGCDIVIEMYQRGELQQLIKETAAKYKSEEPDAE


Experiments:
[1] = target: GrxS14 (Arabidopsis thaliana) (UniProt Q84Y95); conditions: cited from earlier work
Sequence of GrxS14 (Arabidopsis thaliana) (Q84Y95 64-173): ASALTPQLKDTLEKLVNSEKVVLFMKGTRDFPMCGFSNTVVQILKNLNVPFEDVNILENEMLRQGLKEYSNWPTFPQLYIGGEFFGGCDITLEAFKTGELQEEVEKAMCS

[2] = target: T1, S. cerevisiae monothiol glutaredoxin …; experiment: ITC
[3] = target: T2, E. coli monothiol glutaredoxin Grx4; experiment: ITC

Sequence of BolA1 (Q682I1 51-160): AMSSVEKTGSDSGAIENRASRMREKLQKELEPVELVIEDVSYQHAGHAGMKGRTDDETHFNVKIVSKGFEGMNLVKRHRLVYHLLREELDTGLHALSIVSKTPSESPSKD

Row | Molecule | Kd [2] [µM] | dH [2] [kcal/mol] | stoichiometry N [2] [sites] | Kd [3] [µM] | dH [3] [kcal/mol] | stoichiometry N [3] [sites] | Kd [1] [µM]
1 | BolA1 (from UniProt Q682I1) | – | – | – | – | – | – | 7
2 | E. coli BolA-like protein IbaG (natural protein, UniProt P0A9W6 1-84, looked up) MENNEIQSVLMNALSLQEVHVSGDGSHFQVIAVGELFDGMSRVKKQQTVYGPLMEYIADNRIHAVSIKAYTPAEWARDRKLNGF | – | – | – | 3.4 ± 0.1 | -5.9 ± 0.1 | 0.7 ± 0.01 | –

Second part, led by results:

Row | Kd [2] [µM] | dH [2] [kcal/mol] | stoichiometry N [2] [sites] | Kd [3] [µM] | dH [3] [kcal/mol] | stoichiometry N [3] [sites] | Molecule | Kd [1] [µM]
3 | 20.8 ± 6.6 | -10.1 ± 5.4 | 0.4 ± 0.19 | – | – | – | S. cerevisiae Fra2 (natural protein, UniProt P53082 1-120, looked up) MTGERIEKVKINDEFAKSHFLTTQWRETKRQRHYKMPVTEQGLRERIESAIPQVYHIIVTDLSYGCGQSFDIVVVSDFFQGKSKLMRSRAVNKAVKEELQEIHAFSCKCYTEEEWSKIVV | –
4 | – | – | – | 4.6 ± 0.9 | -3.1 ± 0.1 | 0.97 ± 0.03 | E. coli BolA (natural protein, UniProt P0ABE2 1-105, looked up) MMIRERIEEKLRAAFQPVFLEVVDESYRHNVPAGSESHFKVVLVSDRFTGERFLNRHRMIYSTLAEELSTTVHALALHTYTIKEWEGLQDTVFASPPCRGAGSIA | –
